From paper doi:10.1101/2022.08.08.502946 (bioRxiv, 2022)
Where a chain is given by its changes, count along the chain named. Names and notes keep the numbering of the source.

Legend:
[1] = target: NaKΔ18 S-ELM (Bacillus cereus) (UniProt Q81HW2); assay: crystal structure
[2] = target: the molecule itself; assay: crystal structure

NaKΔ18 S-ELM (from UniProt Q81HW2 19-114) (domain or fragment)
stoichiometry N [1]: 4

B1: NaKΔ18 C-DI (domain or fragment, Bacillus cereus, UniProt Q81HW2 19-114, looked up)
chain: WKDKEFQVLFVLTILTLISGTIFYSTVEGLRPIDALYFSVVTLTTVGCDISPQTDFGKIFTILYIFIGIGLVFGFIHKLAVNVQLPSILSNRKKE
stoichiometry N [2]: 4

B2: NaKΔ18 C-DI F92A (domain or fragment, Bacillus cereus, UniProt Q81HW2 19-114, looked up)
chain: B1 chain with F73A
stoichiometry N [2]: 4

B3: NaKΔ18 S-DI (domain or fragment, Bacillus cereus, UniProt Q81HW2 19-114, looked up)
chain: B1 chain with C48S
stoichiometry N [2]: 4
